Values quoted from earlier work in article PMC8466385.

Target: Tyr411 (UniProt position 435, ALLVRYTKKVP)
Assay: kinetics
Details: not stated for the pKa values (Table 1 footnote c gives 22.0 °C for kinetic parameters from the same reference)

What does the source list for “Human serum albumin (HSA) (Homo sapiens)”?
pKa (HSA:NphODe (p-nitrophenyl decanoate) substrate complex): 7.0; pKa (HSA:NphOHe (p-nitrophenyl hexanoate) substrate complex): 7.6; pKa (substrate-free HSA): 8.9
